Positions count from the first letter of the chain named. One block for each binder: values may come before it.
How the values were obtained:
[1] = target: T1, Cytochrome c oxidase (Bos taurus, UniProt P68530); experiment: laser flash photolysis
T1 chain: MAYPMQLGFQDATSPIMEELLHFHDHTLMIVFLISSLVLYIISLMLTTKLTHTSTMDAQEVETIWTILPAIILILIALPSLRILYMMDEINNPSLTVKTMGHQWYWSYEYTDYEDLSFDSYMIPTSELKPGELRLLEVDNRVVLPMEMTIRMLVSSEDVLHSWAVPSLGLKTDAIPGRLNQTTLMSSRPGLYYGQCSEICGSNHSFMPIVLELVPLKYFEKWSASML

[2] = target: T1, Cytochrome c oxidase; experiment: analytical ultracentrifugation
[3] = target: T2, Cytochrome c oxidase (Bos taurus, UniProt P68530); experiment: analytical ultracentrifugation
T2 chain: T1 chain with E89T

Kd [1]: 8 µM
B1: Ru-39-Cytochrome c (protein)
chain: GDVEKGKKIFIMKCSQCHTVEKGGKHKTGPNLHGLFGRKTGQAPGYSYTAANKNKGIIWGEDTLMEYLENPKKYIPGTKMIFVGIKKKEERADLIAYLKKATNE
modifications: (dimethylbipyridine)(bisbipyridine)ruthenium at Cys-39

Kd [2]: 28.4 µM
B2: Cytochrome c (protein)
chain: not shown

Kd [3]: 2.1 µM
Kd [2]: 4.7 µM
B3: Cytochrome c (protein)
chain: not shown
